Test results from publication PMC314469, “Protein Interaction Networks by Proteome Peptide Scanning” (PLoS Biology, 2004).

Molecular target: T1, Boi1 SH3 (BOI1_YEAST), P38041
T1 chain: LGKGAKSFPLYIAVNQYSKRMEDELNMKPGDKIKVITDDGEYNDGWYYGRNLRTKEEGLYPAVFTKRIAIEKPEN
Test: SPOT array

| Binder | normalised SPOT signal, Boehringer light units (BLU); mean over the file's lines of this peptide |
| --- | --- |
| TSSLRKPPNGPSSV [YOR097C 144-157] | 29.2 |
| TQSGRMGPSEPKHR [YML020W 26-39] | 728 |
| TSWARDNPSKPDIA [YHR209W 243-256] | 82.3 |
| TTNSRLSPSSPSSS [YJR038C 2-15] | 63 |
| TTKHKAPPPPPPTA [YOR181W 179-192] | -0 |
| TSSSRRGPGRPRKD [YDR310C 200-213] | 418 |
| TSNTKWTPITPSVI [YDR515W 74-87] | 29.7 |
| TSSTKEKPTPPTTT [YIR019C 265-278] | 0 |
| TSISRISPQDPEAK [YDR109C 25-38] | 95.3 |
| TQPVRKNPEAPARR [YOR042W 151-164] | 17200 |
| TSGYKYFPQFPQLK [YOR227W 765-778] | 95.1 |

Molecular target: T2, Boi2 SH3 (BOI2_YEAST), P39969
T2 chain: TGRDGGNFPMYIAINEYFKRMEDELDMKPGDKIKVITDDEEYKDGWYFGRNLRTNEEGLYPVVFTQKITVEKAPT
Test: SPOT array

| Binder | normalised SPOT signal, Boehringer light units (BLU); mean over the file's lines of this peptide |
| --- | --- |
| TSSLRKPPNGPSSV [YOR097C 144-157] | 17.3 |
| TQSGRMGPSEPKHR [YML020W 26-39] | 34.4 |
| TSWARDNPSKPDIA [YHR209W 243-256] | 20.3 |
| TTNSRLSPSSPSSS [YJR038C 2-15] | 27.3 |
| TTKHKAPPPPPPTA [YOR181W 179-192] | 20.8 |
| TSSSRRGPGRPRKD [YDR310C 200-213] | 23.6 |
| TSNTKWTPITPSVI [YDR515W 74-87] | 6.7 |
| TSSTKEKPTPPTTT [YIR019C 265-278] | 0.9 |
| TSISRISPQDPEAK [YDR109C 25-38] | -0 |
| TQPVRKNPEAPARR [YOR042W 151-164] | 32.4 |
| TSGYKYFPQFPQLK [YOR227W 765-778] | 32.8 |

Molecular target: T3, Myo5 SH3 (MYO5_YEAST), Q04439
T3 chain: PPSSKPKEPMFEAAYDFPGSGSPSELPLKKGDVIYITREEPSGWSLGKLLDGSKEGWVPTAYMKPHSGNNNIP
Test: SPOT array

| Binder | normalised SPOT signal, Boehringer light units (BLU); mean over the file's lines of this peptide |
| --- | --- |
| TSSLRKPPNGPSSV [YOR097C 144-157] | 144 |
| TQSGRMGPSEPKHR [YML020W 26-39] | 456 |
| TSWARDNPSKPDIA [YHR209W 243-256] | 81.6 |
| TTNSRLSPSSPSSS [YJR038C 2-15] | 161 |
| TTKHKAPPPPPPTA [YOR181W 179-192] | 1680 |
| TSSSRRGPGRPRKD [YDR310C 200-213] | 620 |
| TSNTKWTPITPSVI [YDR515W 74-87] | 142 |
| TSSTKEKPTPPTTT [YIR019C 265-278] | 118 |
| TSISRISPQDPEAK [YDR109C 25-38] | 194 |
| TQPVRKNPEAPARR [YOR042W 151-164] | 232 |
| TSGYKYFPQFPQLK [YOR227W 765-778] | 235 |

Molecular target: T4, Rvs167 SH3 (RV167_YEAST), P39743
T4 chain: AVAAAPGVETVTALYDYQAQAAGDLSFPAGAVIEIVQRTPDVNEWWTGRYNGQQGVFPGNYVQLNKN
Test: SPOT array

| Binder | normalised SPOT signal, Boehringer light units (BLU); mean over the file's lines of this peptide |
| --- | --- |
| TSSLRKPPNGPSSV [YOR097C 144-157] | 455 |
| TQSGRMGPSEPKHR [YML020W 26-39] | 336 |
| TSWARDNPSKPDIA [YHR209W 243-256] | 34.6 |
| TTNSRLSPSSPSSS [YJR038C 2-15] | 203 |
| TTKHKAPPPPPPTA [YOR181W 179-192] | 80 |
| TSSSRRGPGRPRKD [YDR310C 200-213] | 269 |
| TSNTKWTPITPSVI [YDR515W 74-87] | 35 |
| TSSTKEKPTPPTTT [YIR019C 265-278] | 34.3 |
| TSISRISPQDPEAK [YDR109C 25-38] | 8.5 |
| TQPVRKNPEAPARR [YOR042W 151-164] | 410 |
| TSGYKYFPQFPQLK [YOR227W 765-778] | 58.8 |

Molecular target: Sho1 SH3 (SHO1_YEAST), P40073
Sequence (P40073 295-366): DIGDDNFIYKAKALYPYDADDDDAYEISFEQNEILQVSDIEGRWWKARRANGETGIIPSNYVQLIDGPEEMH
Test: SPOT array

| Binder | normalised SPOT signal, Boehringer light units (BLU); mean over the file's lines of this peptide |
| --- | --- |
| TSSLRKPPNGPSSV [YOR097C 144-157] | 99 |
| TQSGRMGPSEPKHR [YML020W 26-39] | 78.4 |
| TSWARDNPSKPDIA [YHR209W 243-256] | 40.9 |
| TTNSRLSPSSPSSS [YJR038C 2-15] | 57.7 |
| TTKHKAPPPPPPTA [YOR181W 179-192] | 6.1 |
| TSSSRRGPGRPRKD [YDR310C 200-213] | 416 |
| TSNTKWTPITPSVI [YDR515W 74-87] | 18.6 |
| TSSTKEKPTPPTTT [YIR019C 265-278] | 21 |
| TSISRISPQDPEAK [YDR109C 25-38] | 29.1 |
| TQPVRKNPEAPARR [YOR042W 151-164] | 60.1 |
| TSGYKYFPQFPQLK [YOR227W 765-778] | 36.2 |

Molecular target: T5, Yfr024 SH3 (LSB3_YEAST), P43603
T5 chain: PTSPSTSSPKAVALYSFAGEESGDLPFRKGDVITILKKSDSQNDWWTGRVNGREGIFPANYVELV
Test: SPOT array

| Binder | normalised SPOT signal, Boehringer light units (BLU); mean over the file's lines of this peptide |
| --- | --- |
| TSSLRKPPNGPSSV [YOR097C 144-157] | 121 |
| TQSGRMGPSEPKHR [YML020W 26-39] | 637 |
| TSWARDNPSKPDIA [YHR209W 243-256] | 260 |
| TTNSRLSPSSPSSS [YJR038C 2-15] | 91.6 |
| TTKHKAPPPPPPTA [YOR181W 179-192] | 141 |
| TSSSRRGPGRPRKD [YDR310C 200-213] | 969 |
| TSNTKWTPITPSVI [YDR515W 74-87] | 36.9 |
| TSSTKEKPTPPTTT [YIR019C 265-278] | 58.6 |
| TSISRISPQDPEAK [YDR109C 25-38] | 20.2 |
| TQPVRKNPEAPARR [YOR042W 151-164] | 3700 |
| TSGYKYFPQFPQLK [YOR227W 765-778] | 134 |

Molecular target: T6, Yhr016c SH3 (YSC84_YEAST), P32793
T6 chain: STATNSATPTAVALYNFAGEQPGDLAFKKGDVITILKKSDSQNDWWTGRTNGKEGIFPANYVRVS
Test: SPOT array

| Binder | normalised SPOT signal, Boehringer light units (BLU); mean over the file's lines of this peptide |
| --- | --- |
| TSSLRKPPNGPSSV [YOR097C 144-157] | 37.6 |
| TQSGRMGPSEPKHR [YML020W 26-39] | 109 |
| TSWARDNPSKPDIA [YHR209W 243-256] | 49.1 |
| TTNSRLSPSSPSSS [YJR038C 2-15] | 27.4 |
| TTKHKAPPPPPPTA [YOR181W 179-192] | 185 |
| TSSSRRGPGRPRKD [YDR310C 200-213] | 65 |
| TSNTKWTPITPSVI [YDR515W 74-87] | 21 |
| TSSTKEKPTPPTTT [YIR019C 265-278] | 29.7 |
| TSISRISPQDPEAK [YDR109C 25-38] | 19 |
| TQPVRKNPEAPARR [YOR042W 151-164] | 159 |
| TSGYKYFPQFPQLK [YOR227W 765-778] | 20.3 |
